Experimental data published in the supplement of paper PMC7877785.
± gives the uncertainty stated by the source.

Assay: self-splicing fitness, log relative to wild type (ln ratio); higher = more splicing; Tetrahymena group I intron in knt gene, E. coli kanamycin selection, DiMSum; sequences stand for … in CUCUCU…GGAGGGAAAAGUUAUCAGGCAUGCACCUGGUAGCUAGUCUUUAAACCAAUAGAUUGCAUCGGUUUAAAAGGCAAGACCGUCAAAUUGCGGGAAAGGGGUCAACAGCCGUUCAGUACCAAGUCUCAGGGGAAACUUUGAGAUGGCCUUGCAAAGGGUAUGGUAAUAAGCUGACGGACAUGGUCCUAACCACGCAGCCAAGUCCUAAGUCAACAGAUCUUCUGUUGAUAUGGAUGCAGUUCACAGACUAAAUGUCGGUCGGGGAAGAUGUAUUCUUCUCAUAAGAUAUAGUCGGACCUCUCCUUAAUGGGAGCUAGCGGAUGAAGUGAUGCAACACUGGAGCCGCUGGGAACUAAUUUGUAUGCGAAAGUAUAUUGAUUAGUUUUGGAGUACUCGUGGUCG
Procedure, shortened: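 The eight P1ex-region nucleotides of an intron in the knt kanamycin-resistance gene on pET-22b(+) were all randomised and the library put into E. coli BL21(DE3). Six replicate transformations were grown overnight at 37°C or 30°C on LB agar with or without 25 μg/mL kanamycin, together with 100 μg/mL carbenicillin, 50 μM IPTG and 0.2% rhamnose. Colonies were pooled and amplicon-sequenced on an Illumina HiSeq 2500. Fitness from DiMSum is the error-weighted combination of wild-type-normalised replicate fold changes, kanamycin over none.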

UCUUAGCAAUAUUACGUAUA
self-splicing fitness (ln) (37 °C): -3.28 ± 0.3

UCUUAGCAAUAUUACGUCAA
self-splicing fitness (ln) (30 °C): -2.43 ± 0.25 | self-splicing fitness (ln) (37 °C): -2.6 ± 0.44

UCUUAGCAAUAUUACGUGAG
self-splicing fitness (ln) (30 °C): -0.751 ± 0.079 | self-splicing fitness (ln) (37 °C): -0.366 ± 0.14

UCUUAGCAAUAUUACGUGCG
self-splicing fitness (ln) (30 °C): -2.14 ± 0.15 | self-splicing fitness (ln) (37 °C): -1.67 ± 0.2

UCUUAGCAAUAUUACGUUGU
self-splicing fitness (ln) (30 °C): -3.61 ± 0.19 | self-splicing fitness (ln) (37 °C): -1.24 ± 0.14

UCUUAGCAAUAUUACGUUUA
self-splicing fitness (ln) (30 °C): -2.75 ± 0.33 | self-splicing fitness (ln) (37 °C): -2.57 ± 0.32

UCUUAGCAAUAUUACGUUUU
self-splicing fitness (ln) (37 °C): -1.8 ± 0.23

UGAAAGCAAUAUUACGACUG
self-splicing fitness (ln) (30 °C): 0.192 ± 0.1 | self-splicing fitness (ln) (37 °C): 0.249 ± 0.12

UGAAAGCAAUAUUACGAGCU
self-splicing fitness (ln) (30 °C): -1.42 ± 0.14 | self-splicing fitness (ln) (37 °C): -0.746 ± 0.17

UGAAAGCAAUAUUACGAGUG
self-splicing fitness (ln) (30 °C): -0.522 ± 0.069 | self-splicing fitness (ln) (37 °C): 0.0623 ± 0.11

UGAAAGCAAUAUUACGAUCU
self-splicing fitness (ln) (30 °C): -0.256 ± 0.083 | self-splicing fitness (ln) (37 °C): 0.425 ± 0.11

UGAAAGCAAUAUUACGAUUA
self-splicing fitness (ln) (30 °C): -0.302 ± 0.065 | self-splicing fitness (ln) (37 °C): 0.211 ± 0.096

UGAAAGCAAUAUUACGCAAG
self-splicing fitness (ln) (30 °C): -2.4 ± 0.15 | self-splicing fitness (ln) (37 °C): -2 ± 0.2

UGAAAGCAAUAUUACGCACA
self-splicing fitness (ln) (30 °C): -0.903 ± 0.15 | self-splicing fitness (ln) (37 °C): 0.683 ± 0.15

UGAAAGCAAUAUUACGCCAG
self-splicing fitness (ln) (30 °C): -0.985 ± 0.12 | self-splicing fitness (ln) (37 °C): -0.807 ± 0.12

UGAAAGCAAUAUUACGCCGU
self-splicing fitness (ln) (30 °C): -2.92 ± 0.29 | self-splicing fitness (ln) (37 °C): -1 ± 0.16

UGAAAGCAAUAUUACGCCUC
self-splicing fitness (ln) (30 °C): -1.85 ± 0.28

UGAAAGCAAUAUUACGCGAU
self-splicing fitness (ln) (30 °C): -2.15 ± 0.14 | self-splicing fitness (ln) (37 °C): -2.37 ± 0.19

UGAAAGCAAUAUUACGCUAA
self-splicing fitness (ln) (30 °C): -1 ± 0.12 | self-splicing fitness (ln) (37 °C): -0.805 ± 0.13

UGAAAGCAAUAUUACGCUAG
self-splicing fitness (ln) (30 °C): -1.59 ± 0.15 | self-splicing fitness (ln) (37 °C): 0.503 ± 0.15

UGAAAGCAAUAUUACGGCAU
self-splicing fitness (ln) (30 °C): -1.43 ± 0.076 | self-splicing fitness (ln) (37 °C): -0.236 ± 0.1

UGAAAGCAAUAUUACGGGUU
self-splicing fitness (ln) (30 °C): -4.06 ± 0.27 | self-splicing fitness (ln) (37 °C): -2.06 ± 0.19

UGAAAGCAAUAUUACGGUAA
self-splicing fitness (ln) (30 °C): -1.02 ± 0.085 | self-splicing fitness (ln) (37 °C): -0.765 ± 0.078

UGAAAGCAAUAUUACGUAGA
self-splicing fitness (ln) (30 °C): -1.88 ± 0.097 | self-splicing fitness (ln) (37 °C): -1.56 ± 0.15

UGAAAGCAAUAUUACGUAGG
self-splicing fitness (ln) (30 °C): -0.728 ± 0.095 | self-splicing fitness (ln) (37 °C): -0.459 ± 0.14

UGAAAGCAAUAUUACGUUCC
self-splicing fitness (ln) (30 °C): -1.36 ± 0.11 | self-splicing fitness (ln) (37 °C): -0.98 ± 0.13

UGACAGCAAUAUUACGAAUA
self-splicing fitness (ln) (30 °C): -1.26 ± 0.13 | self-splicing fitness (ln) (37 °C): -0.589 ± 0.14

UGACAGCAAUAUUACGACAC
self-splicing fitness (ln) (30 °C): -0.678 ± 0.12 | self-splicing fitness (ln) (37 °C): -2.04 ± 0.17

UGACAGCAAUAUUACGACCC
self-splicing fitness (ln) (30 °C): -1.52 ± 0.2 | self-splicing fitness (ln) (37 °C): -1.01 ± 0.25

UGACAGCAAUAUUACGACGA
self-splicing fitness (ln) (30 °C): -0.0144 ± 0.099 | self-splicing fitness (ln) (37 °C): 0.355 ± 0.13

UGACAGCAAUAUUACGAGAU
self-splicing fitness (ln) (30 °C): -3.55 ± 0.23 | self-splicing fitness (ln) (37 °C): -2.86 ± 0.26

UGACAGCAAUAUUACGAGCC
self-splicing fitness (ln) (30 °C): -3.37 ± 0.28 | self-splicing fitness (ln) (37 °C): -2.24 ± 0.38

UGACAGCAAUAUUACGAUGA
self-splicing fitness (ln) (30 °C): -0.596 ± 0.068 | self-splicing fitness (ln) (37 °C): -0.119 ± 0.082

UGACAGCAAUAUUACGCUAA
self-splicing fitness (ln) (30 °C): -1.22 ± 0.086 | self-splicing fitness (ln) (37 °C): -0.325 ± 0.093

UGACAGCAAUAUUACGCUAG
self-splicing fitness (ln) (30 °C): -1.37 ± 0.076 | self-splicing fitness (ln) (37 °C): -0.358 ± 0.11

UGACAGCAAUAUUACGCUCA
self-splicing fitness (ln) (30 °C): -0.115 ± 0.11 | self-splicing fitness (ln) (37 °C): -0.155 ± 0.1

UGACAGCAAUAUUACGCUUG
self-splicing fitness (ln) (30 °C): -0.879 ± 0.074 | self-splicing fitness (ln) (37 °C): -0.702 ± 0.11

UGACAGCAAUAUUACGGAGC
self-splicing fitness (ln) (30 °C): -4.35 ± 0.39 | self-splicing fitness (ln) (37 °C): -2.91 ± 0.19
